Laboratory results taken from patent publication US20200377560A1 (WYL SCIENCES, published 2020).

Target: T1, bovine serum albumin (bovine, UniProt P02769 25-607)
T1 construct: Control protein in the dot immunoblot; also called BSA
Assay: dot immunoblot, BSA dotted as control
Description: The fusion protein containing the full-length royalactin with a histidine tag (SEQ ID NO: 2), which was confirmed to have biological activity in Example 1, was produced in bacteria and purified. This protein was used to generate monoclonal antibodies by injection into mice with subsequent harvest of the spleen for generation of multiple hybridomas. Individual hybridomas were isolated and the antibody produced was screened using dot immunoblot assays. Various concentrations of royalactin were dotted onto the blot with bovine serum albumin (BSA) as a control.

T1 sequence (P02769 25-607 limits assumed): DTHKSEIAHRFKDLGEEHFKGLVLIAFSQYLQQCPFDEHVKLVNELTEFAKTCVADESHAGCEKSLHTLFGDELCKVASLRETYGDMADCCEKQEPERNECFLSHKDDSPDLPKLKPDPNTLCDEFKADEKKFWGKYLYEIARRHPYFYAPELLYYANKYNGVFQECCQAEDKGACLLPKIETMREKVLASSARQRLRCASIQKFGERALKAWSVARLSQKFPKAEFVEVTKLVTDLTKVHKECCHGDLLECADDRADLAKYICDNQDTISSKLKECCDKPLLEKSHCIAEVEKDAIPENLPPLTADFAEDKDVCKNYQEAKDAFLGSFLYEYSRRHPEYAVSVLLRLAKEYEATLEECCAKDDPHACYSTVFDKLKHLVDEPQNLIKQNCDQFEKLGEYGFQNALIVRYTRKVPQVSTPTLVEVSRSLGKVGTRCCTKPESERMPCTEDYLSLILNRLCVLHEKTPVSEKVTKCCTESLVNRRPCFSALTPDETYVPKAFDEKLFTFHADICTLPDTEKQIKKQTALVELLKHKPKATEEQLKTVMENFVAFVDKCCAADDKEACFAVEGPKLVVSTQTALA

B1: monoclonal antibody #19 (4G6C5) (antibody, V domains shown)
VH: VMLVESGGGLVKPGGSLKLSCAASGFTFSRYAMSWNRQTPEKRLEWVATISPGGGYIYYSDSVKGRFTISRDNARNTLYLQMSSLRSEDTAMYYCAGDYVDYWGQGTTLTVSS
VL: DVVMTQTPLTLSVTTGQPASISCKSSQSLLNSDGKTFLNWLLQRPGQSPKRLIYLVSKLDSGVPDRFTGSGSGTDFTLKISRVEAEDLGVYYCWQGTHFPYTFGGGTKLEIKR
notes: Mouse hybridoma monoclonal antibody; also called antibody 4G6C5; hybridoma #19
  binding result: no binding (tested: 2 ng)
